Consider three molecules from US20130129845A1, “SCREENING METHOD FOR CHRONIC INFLAMMATION INHIBITORS OR CANCER METASTASIS INHIBITORS USING INHIBITION OF BINDING BETWEEN EMMPRIN AND S100A9 AS INDEX” (priority 2010, published 2013).

One test deals with T1, EMMPRIN (Homo sapiens, UniProt P35613).
T1 construct: cDNA coding for the human EMMPRIN extracellular domain (with a myc-HA-Flag-6His tag added at the C-terminus); made in house; host or cells: HEK293 (transfected)
T1 sequence (P35613 138-325 limits assumed): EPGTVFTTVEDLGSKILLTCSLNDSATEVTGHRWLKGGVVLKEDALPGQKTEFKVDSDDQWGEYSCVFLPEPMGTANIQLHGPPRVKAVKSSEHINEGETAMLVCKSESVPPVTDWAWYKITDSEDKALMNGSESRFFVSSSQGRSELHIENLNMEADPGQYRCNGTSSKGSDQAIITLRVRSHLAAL
Kind of test: Identification of EMMPRIN-binding proteins by immunoprecipitation and Western blotting. The note with it: culture supernatants mixed; HA and Myc antibody; FIG. 6. The source says:
EMMPRIN-binding proteins were identified by immunoprecipitation and Western blotting, for confirmation that EMMPRIN is a novel receptor for S100 protein. […] The S100 proteins used were S100A8 and S100A9 protein. HEK293 cells were transfected with plasmids coding for the proteins (with HA tags attached to the C-termini), and the proteins were isolated from the respective culture supernatants.
In order to analyze binding between EMMPRIN and S100A8 and S100A9 protein, the culture supernatants containing the respective proteins were mixed and reacted, and then HA antibody and Myc antibody were used for immunoprecipitation.

In test [1] the test system is IL-8 (CXCL-8), TNFα, IL1-F9 and CXCL-1 expression. Nature of the test: Cytokine expression in keratinocytes (NHEK) by real-time quantitative PCR. Format: cell-based, human. The settings on record: S100A9-added sample with control siRNA (A9/LF); FIG. 4. How it is done:
(§1) Using real-time quantitative PCR, it was then investigated whether addition of S100A9 also accelerates expression of IL-8 (CXCL-8), TNFα, IL1-F9 and CXCL-1, and whether suppressing expression of EMMPRIN has any effect on expression of these cytokines. The same method was also used to examine the effect of S100A9 stimulation on MMP-1 and MMP-10 expression.
(§2) Growth-phase NHEK, cultured in EpiLife™-KG2 (Cascade Biologies) were exposed for 3 hours after exchanging to the same culture medium containing and not containing 2 mM calcium chloride and S100A8 or S100A9 (10 μg/ml each), and a MagNA™ Pure mRNA extraction kit and a MagNA Pure™ device (Roche Diagnostics, Tokyo, Japan) were used for extraction of the mRNA. The obtained mRNA was reverse transcripted using SuperScript™ II (Invitrogen Corporation, Carlsbad, Calif., U.S.). Real-time quantitative PCR was performed on a LightCycler high-speed thermal cycler system using a LightCycler FastStart DNA master SYBR green I kit (Roche Diagnostics), according to the manufacturer's instructions. […] The expression level of each gene was quantitatively analyzed using LightCycler analysis software (NPL 11: Morrison T B et al., Biotechniques (1998)24:954-958, 960, 962). […]

For test [2], the system named is MMP-1 and MMP-10 expression. Kind of test: MMP expression in keratinocytes by real-time quantitative PCR. Format: cell-based, human. The note with it: FIG. 5. How it is done:
as §1, §2

A further test relates to MMP-1 expression. Kind of test: Effect of soluble EMMPRIN on MMP expression in keratinocytes. Format: cell-based, human. The source says: It was therefore investigated whether soluble EMMPRIN actually accelerates expression of MMP.
It is believed that MMP expression was suppressed when soluble EMMPRIN and S100A9 were both present because S100A9 which induces MMP production was scavenged by soluble EMMPRIN, with both forming a bonded complex.

In the case of “S100A8: EF-hand calcium-binding S100 family protein”, the “binding to EMMPRIN (band in Western blot after immunoprecipitation)” value in the test with EMMPRIN is recorded as “only a band for EMMPRIN near 32 kDa was confirmed”.
In the case of “S100A9: EF-hand calcium-binding S100 family protein, added to keratinocytes as stimulus”, the “expression of cytokines (IL-8, TNFα, IL1-F9, CXCL-1) on addition of S100A9” value in test [1] is given as “induced expressed of all of the cytokines”. Further, the “expression of MMP on addition of S100A9” value in test [2] was “accelerated expression of MMP”. In addition, the MMP-1 expression entry in the test with MMP-1 expression (S100A9 alone, FIG. 7) is given as “notably accelerated”. Further, the “binding to EMMPRIN (band in Western blot after immunoprecipitation)” value with EMMPRIN is recorded as “a band representing their bound form was confirmed near 47.5 kDa”.

B1: soluble EMMPRIN: purified recombinant human EMMPRIN extracellular domain with myc-HA-Flag-6His tag at the C-terminus (protein, UniProt P35613 138-323, looked up)
extracellular domain: EPGTVFTTVEDLGSKILLTCSLNDSATEVTGHRWLKGGVVLKEDALPGQKTEFKVDSDDQWGEYSCVFLPEPMGTANIQLHGPPRVKAVKSSEHINEGETAMLVCKSESVPPVTDWAWYKITDSEDKALMNGSESRFFVSSSQGRSELHIENLNMEADPGQYRCNGTSSKGSDQAIITLRVRSHLA
modifications: extracellular domain C-terminal myc-HA-Flag-6His tag
notes: purified recombinant human EMMPRIN extracellular domain with myc-HA-Flag-6His tag at the C-terminus
Consider B1, for which the MMP-1-inducing effect entry with MMP-1 expression (added to keratinocytes at 0.025, 0.25 and 2.5 μM, FIG. 7) is recorded as “virtually no MMP-1-inducing effect”. In addition, in the test on MMP-1 expression (both soluble EMMPRIN and S100A9 added to keratinocytes, FIG. 7), the “MMP1 expression-accelerating effect of S100A9” value was “significantly suppressed”. In the test with MMP-1 expression (results not shown), the IL-8 expression result was “significantly suppressed”, the MMP-10 expression result was “significantly suppressed” and the TNFα expression result is on record as “significantly suppressed”.
